One molecule from PMC12495166, “Enhanced solid tumor cell targeting by a neoepitope-encoding oncolytic measles virus combined with CAR therapy” (Molecular Therapy Oncology, 2025) can be followed below.

Experiment [1] deals with T1, MICB-derived octapeptide VLQSQRTD (soluble) (human).
T1 peptide: VLQSQRTD
The experiment in a line: SPR. In general terms: In SPR one partner is held on a chip, and binding of the other changes the refractive index at the surface.

Experiment [2] addresses T2, MICB-derived octapeptide VLQSQRTD (soluble) (Homo sapiens).
T2 construct: stalk octapeptide starting at position V302 and ending N-terminally of the annotated transmembrane domain; also called immunization peptide
T2 chain: VLQSQRTD
Briefly: SPR; antibodies (2 μg/mL) immobilised on an IgG-capture sensor chip; peptides as analyte, 0.5-100 nM octapeptide or 1-200 μM 13-aa peptide; single-cycle kinetics; HBS-EP pH 7.4, 30 μL/min; Sierra SPR-24 Pro. To be noted: both partners purified.

B1: monoclonal antibody clone 12F7 (antibody, V domains shown)
VH: QVQLQQSGAELVRPGTSVKVSCKASGYAFTNYLIEWIKQRPGQGLEWIGVINPRSGGTNYNEKFKGKATLTADKSSITVYMQLSSLTSDDSAIYFCVRSESYGDYGAWFAYWGQGTLVTVSA
VL: DIVLTQSPASLAVSLGQRATISCRASESVDSYGNSFMHWYQQKPGQPPKLLIDRASNRESGIPARFSGSGSRTDFTLTINPVEADDVATYYCQQSNEDPFTFGSGTKLEIK
notes: variable heavy domain of clone 12F7; constant region of the murine heavy chain; variable light domain of clone 12F7; constant region of the murine light chain; also called 12-F7-C12-E3; mAb 12F7; source: mouse hybridoma (ProteoGenix), purified by protein A/G
In general, koff refers to a measure of how fast the partners let go of each other. One may read the Kd as the concentration at which binding is half-saturated. Read a low Kd as a tighter complex. As to B1, the off-rate (koff) in experiment [1] turned out to be 0.00536 s⁻¹. For the same molecule, the Kd in experiment [2] came out at 3.85 nM.
